In article PMC3460626 one finds binding data, which are given here for 15 sequences.

This data set concerns the target T1, LasR (Pseudomonas aeruginosa PA14?) (UniProt A0A0H2Z901).
T1 sequence: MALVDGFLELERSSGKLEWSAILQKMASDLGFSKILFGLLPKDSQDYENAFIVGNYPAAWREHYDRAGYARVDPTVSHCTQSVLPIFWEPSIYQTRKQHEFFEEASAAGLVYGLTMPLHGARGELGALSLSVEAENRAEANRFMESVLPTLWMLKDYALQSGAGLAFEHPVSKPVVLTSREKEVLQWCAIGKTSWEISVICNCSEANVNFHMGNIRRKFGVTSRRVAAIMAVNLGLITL
The data set can be described thus: EMSA. To be noted: LasR EMSA: 20 mM Tris-HCl pH 7.5, 50 mM KCl, 1 mM EDTA, 1 mM DTT, 100 ug/ml BSA, 10% glycerol, room temp 20 min, 1 pM each specific and nonspecific probe.
“GTCCGGATCCTTCCGTGAAGTGTTTCAAATAGCCAGCATCCCTGGTCGCTGATGTGGATTGCATAAAACACAGAACGCTCGTACCGGCTCAACTACAAGATCTGGTAGGTGCCAGACAGGGTATGCGGGATTGCTAAGCTGATGCTTCCTGCAATGCCGGAGGTTGTAGCCAAGTTGTAATTTTATTCTTTCGGTACGCAGGAAAGAATTCGGAC (double strand) [PA14_09480 (phzA1) promoter]”: the binding result is on record as “binds”.
With “GTCCGGATCCAGTCGCACGGCGACTGCGCCGCCCCCATGGGCGCGGCGAGTCTCTCATCGGACTGAAGGGAGATTATTGGCGAGAGGACTGCGGCGGATAACCTGGCAGAACTGAACGTATCGTTGAATGGAATTCAACGATACCCAAGCCGGGCGGGAATCGCCCGGGCGAGGCCGCGTTCCCGGTGGCCCGCTCCTCGCCGCTAAGCTTGGAC (double strand) [PA14_33890 promoter]” the entry was “binds more weakly”; with “GTCCGAATTCTGGATCGTTTCGTCACAGGAAACGCTGGAGCGCCTATTCCAGAGCGCTTCGAACAATCGGTAAAAATAAAATCCAAATAATCAGACGCAGTTCAAAAACAACCAGAACAGATAGTTTTTCCGCCTTTCCCAACATGCTCCTCTCGCCTTGACTCGTTCGATGCAGCGGATCGCCCATGCGTATGTCCGGCATTGGATCCGGAC (double strand) [PA14_07430 promoter]”, “binds”; with “GTCCGAATTCTTGTTCTATATGTTCGAACTTGGCTTTGCTCGTTGTTTTAATTTTGCGGAATAACCTCTGGAACTATTCATATGAATTTTTGAAAGTTTGGTTTACCTGAGAGATTTATGAGTTGACCTTGTCACGATGGCAGGACTCATGGTTCGCAGGAGTCAACAAACCAGGATCCGGAC (double strand) [PA14_18800 promoter]”, “binds”.
Turning to “GTCCGGATCCCGAGGCTCTCCAGAGGAATCCACTGTTGTCTGCCTTATTTTTTATAAATTGTTAACTACCTGTTTTGGTAGGGTTTTCCAAATGGCCATCAATGTCGTTATGATGGCTATAGCCAAGCCGTAAAGGGCATGGACGCAGACGCCTGACGTTTGGCTGAAAATCTTTCATTGGAATTCGGAC (double strand) [lrs2 promoter]”, the binding entry was “binds”.
For “GTCCGAATTCGCGGCTGAATCCGGCTGGGCAGCTGGCGATCATATCGCCAGCCACCCTGCTGGCCCCCGGCGCAGAGCGGCGCGGCTATGCTCGTGCGCCCGGAACGGCCCTATCCGTTCTGGGAGCTACCCCCTCGCCACCCTCGACTAGCATGACCAGGGAGGCCCGCAGTGGACGCCCAGGGCTAGGAGCCGCAGGCGGATCCGGAC (double strand) [PA14_41500 promoter]”, the binding result is given as “binds”.
On to “GTCCGAATTCGTGGAGGATCGCGTCGCGCAGCTGGCGATAGAGCTGGCCGACCAGGTCGTGGCGGCCGTCGAGGATCAGTTGCAGTTCCATGGCGAAATTGGCTACCTGGTATTTCTGGTAATTGGCTCTTCGTGGAAGCCAAAGGCAGGCTTAGTGTTACCCCATGCCGCGCCGCTTTCCACTCTCGCGGCTGCCAATCAGCCGGATCCGGAC (double strand) [PA14_03490 promoter]”, for which the binding result is on record as “binds”.
Turning to “GTCCGAATTCCCGGGAAGCGCCCTGTGACGGACTTCGAATCCTTGCGTCGCGCTCCGTCCTCCGGATTGAGCGGCGCGCTGCGGCGGCCGCGCTCCGGCGCAGCGCCACTGCCAGATCTGGCAGTTGTCGCTGGCGGGGACGGAGGTTTTAGTAGCCGCACTTTTTTCCAGGGCCGGGCAGTGGATCCGGAC (double strand) [PA14_40310 promoter]”, the binding entry was “binds”.
Regarding “GTCCGAATTCGGCGGCCCTTTGCCTGCCTCTACCGGCTCACAGTGCGGGTGCCGACCGCTTTGCATTCCGCGACATCCATCAGGAGTGGGTAGCGAATCTGACCGGCCCGTCACATTTGGTAGGGACCTCAAACCGGCACCGAGGGCTAGGATCAGCCCGCTTCGAAATGAATCCGGTTCTGGAAAGGATCCGGAC (double strand) [PA14_53250 (cbpD) promoter]”, the binding result is recorded as “binds”.
In the case of “GTCCGAATTCCTTCTGATGCCGGCGCGGGCGCCCGGCCGGTATGGCCGGCAAGCCCGTCGACGGCTGTCCAGCTACCAGATCCGGTAGCCCTGCCAGATTTCGCAGGCGACCAGATCTGGCAGGTTGTTGGGCTCCCGGTGCCATGCAACCTATTACGCCTCTCGCCCCCCACCCGTTCGCGCAGGATCCGGAC (double strand) [PA14_37745 promoter]”, the binding entry was “binds”.
With “GTCCGGATCCGTTGAAGAGTGAAGCCTTTGGGGGAAGGGCCGCCGCGGCGGAATCCAATCCTTCATGTTGCCAGCTTTGGCAGAGGGATGGGGCCGGCGGCGGTTCGCCTTCCTATGTCAGTTTGTCGCAGCGGGCCGGCCCGCCGCGGTTCAGGACCTGTCGCTGGCGGCGATCTTCGCGAATTCGGAC (double strand) [PA14_23220 promoter]” the entry was “no binding”; with “GTCCGAATTCCCGTGCTACCCCCGGCAGGCGTAGCCGCGGCAGCCTGCCTCGGCAAAAAGCCATCAGCCGGCGCGCTTCGACGCCCCTCATACCGCCCTTTCGCCAACTACCAATTCTCATAGTTGTGAGGGGAAATTTGTATCTTATTTTAAATACCCACGAAACATATAAAAACACACACAGCGAAACACTTCGGAAACCGGATCCGGAC (double strand) [PA14_48530 promoter]”, “binds”.
As to “GTCCGGATCCGTCCGAACCCATGAGATGGCAAACCAATGACAACCCACTTTGCTCGGCAAATCGCCTCCCAGATCTCACAGTTCGAGGCGCTCGGCCTGGGCTCCACGGGGGCGACGGCATGCCTGGAAGCGAGCGGCCATCCATCGGGCCGATAGCGCTCCACCCCGTCTCGCCTGCCAGAATTCGGAC (double strand) [lrs1 promoter]”, the binding result is “binds”.
For the sequence “GTCCGGATCCGTCTACCGCAGGGCATTCCGGCGTTTGTCGCGATCAGGGCGGGGGCATGGTTGCAGAGACGGCGGAAGGCTTCACCTACCACAATTGGCAGAGTCGCGGCGGCGATGCTCCGCGCCGGGTTCAACCGGCTTCGCTGAGTTCGGCGACCACCACTCCGGGAAGGTCTTTCAGCAGTGCCGGGGACAGCAGGAATTCGGAC (double strand) [PA14_34870 promoter]”, the binding entry is given as “binds”.
As for “GTCCGAATTCGCAATGGCAGACCTTGCCGTTCAGCGACAGGCAGATCGACGCCGACCCGCAACTGCAACGGCTAAGCATTCGCGAATGATAAGCAATGCCTATCAGATCTGATGGGAAAAAAACTGACGGTTTTTCCGCGCTCGTTCGTCTTTAACCATAGAGGCGGCCCACAGCCGCCCGGTTCCAGGGAACACGTGCAGGATCCGGAC (double strand) [PA14_33830 promoter]”, the binding entry is “binds”.
